Laboratory results: paper PMC7585439, “UvrD helicase–RNA polymerase interactions are governed by UvrD’s carboxy-terminal Tudor domain” (Communications Biology, 2020)

T1: UvrD-CTD (Escherichia coli, UniProt P03018 645-720)
T1 sequence: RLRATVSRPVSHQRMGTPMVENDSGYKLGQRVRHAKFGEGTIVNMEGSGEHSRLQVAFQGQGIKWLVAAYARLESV


How the values were obtained:
[1] = target: T2, RNA polymerase core enzyme (subunits α2ββ'ω) (E. coli, UniProt P0A7Z4 1-329; P0A8V2 1-1342; P0A8T7 1-1407; P0A800 1-91); test: BLI; Octet RED96, 303 K; biotinylated ligand on streptavidin biosensors, analyte in a dose series, 0.1% BSA; association and dissociation 1000 s each; which partner was immobilised is not told; conditions: both partners purified
T2 construct: RNA polymerase subunit alpha, E. coli; RNA polymerase subunit beta, E. coli; RNA polymerase subunit beta', E. coli; RNA polymerase subunit omega, E. coli; also called RNAP core-enzyme; source: expressed from plasmid pIA900, purified as by Svetlov and Artsimovitch with an added SEC step (Superose6); copies: 2 + 1 + 1 + 1

UvrD-CTD [2] = target: T1, UvrD-CTD; test: BLI; NMR titrations at 298 K: UvrD-CTD in UvrD NMR buffer (20 mM K-phosphate, 50 mM KCl, 5 mM DTT, pH 6.5, 10% D2O), Mfd-RID in PBS pH 7.4 with 10% D2O; BLI buffer not given in the material; conditions: protein: recombinant, tags: N-terminal His6, uncleavable, label: biotin
UvrD-CTD [3] = target: T1, UvrD-CTD; test: NMR titration; up to 2 molar equivalents DNA; NMR titrations at 298 K: UvrD-CTD in UvrD NMR buffer (20 mM K-phosphate, 50 mM KCl, 5 mM DTT, pH 6.5, 10% D2O), Mfd-RID in PBS pH 7.4 with 10% D2O; BLI buffer not given in the material; conditions: protein: recombinant, tags: N-terminal His6, uncleavable
Mfd-RID = Mfd-RID (Escherichia coli, UniProt P30958 472-547); test: NMR titration; 2 molar equivalents DNA; NMR titrations at 298 K: UvrD-CTD in UvrD NMR buffer (20 mM K-phosphate, 50 mM KCl, 5 mM DTT, pH 6.5, 10% D2O), Mfd-RID in PBS pH 7.4 with 10% D2O; BLI buffer not given in the material; conditions: protein: recombinant; tags: His6-SUMO removed by SenP1; single strand
[4] = self-complementary 28 bp duplex of 2 identical strands, 3' overhangs 7 nt, snap cooled after dissolving

T2 sequence (P0A7Z4 whole entry, chain 1 of 4): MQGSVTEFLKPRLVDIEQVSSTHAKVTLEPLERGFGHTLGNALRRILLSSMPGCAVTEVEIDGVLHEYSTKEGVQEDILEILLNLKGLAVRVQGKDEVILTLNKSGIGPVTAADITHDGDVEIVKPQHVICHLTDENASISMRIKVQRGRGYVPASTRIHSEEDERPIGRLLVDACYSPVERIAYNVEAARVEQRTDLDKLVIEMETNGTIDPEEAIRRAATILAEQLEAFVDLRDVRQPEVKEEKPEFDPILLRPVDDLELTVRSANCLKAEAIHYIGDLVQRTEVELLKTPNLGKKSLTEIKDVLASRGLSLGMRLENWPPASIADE
T2 sequence (P0A8V2 whole entry, chain 2 of 4): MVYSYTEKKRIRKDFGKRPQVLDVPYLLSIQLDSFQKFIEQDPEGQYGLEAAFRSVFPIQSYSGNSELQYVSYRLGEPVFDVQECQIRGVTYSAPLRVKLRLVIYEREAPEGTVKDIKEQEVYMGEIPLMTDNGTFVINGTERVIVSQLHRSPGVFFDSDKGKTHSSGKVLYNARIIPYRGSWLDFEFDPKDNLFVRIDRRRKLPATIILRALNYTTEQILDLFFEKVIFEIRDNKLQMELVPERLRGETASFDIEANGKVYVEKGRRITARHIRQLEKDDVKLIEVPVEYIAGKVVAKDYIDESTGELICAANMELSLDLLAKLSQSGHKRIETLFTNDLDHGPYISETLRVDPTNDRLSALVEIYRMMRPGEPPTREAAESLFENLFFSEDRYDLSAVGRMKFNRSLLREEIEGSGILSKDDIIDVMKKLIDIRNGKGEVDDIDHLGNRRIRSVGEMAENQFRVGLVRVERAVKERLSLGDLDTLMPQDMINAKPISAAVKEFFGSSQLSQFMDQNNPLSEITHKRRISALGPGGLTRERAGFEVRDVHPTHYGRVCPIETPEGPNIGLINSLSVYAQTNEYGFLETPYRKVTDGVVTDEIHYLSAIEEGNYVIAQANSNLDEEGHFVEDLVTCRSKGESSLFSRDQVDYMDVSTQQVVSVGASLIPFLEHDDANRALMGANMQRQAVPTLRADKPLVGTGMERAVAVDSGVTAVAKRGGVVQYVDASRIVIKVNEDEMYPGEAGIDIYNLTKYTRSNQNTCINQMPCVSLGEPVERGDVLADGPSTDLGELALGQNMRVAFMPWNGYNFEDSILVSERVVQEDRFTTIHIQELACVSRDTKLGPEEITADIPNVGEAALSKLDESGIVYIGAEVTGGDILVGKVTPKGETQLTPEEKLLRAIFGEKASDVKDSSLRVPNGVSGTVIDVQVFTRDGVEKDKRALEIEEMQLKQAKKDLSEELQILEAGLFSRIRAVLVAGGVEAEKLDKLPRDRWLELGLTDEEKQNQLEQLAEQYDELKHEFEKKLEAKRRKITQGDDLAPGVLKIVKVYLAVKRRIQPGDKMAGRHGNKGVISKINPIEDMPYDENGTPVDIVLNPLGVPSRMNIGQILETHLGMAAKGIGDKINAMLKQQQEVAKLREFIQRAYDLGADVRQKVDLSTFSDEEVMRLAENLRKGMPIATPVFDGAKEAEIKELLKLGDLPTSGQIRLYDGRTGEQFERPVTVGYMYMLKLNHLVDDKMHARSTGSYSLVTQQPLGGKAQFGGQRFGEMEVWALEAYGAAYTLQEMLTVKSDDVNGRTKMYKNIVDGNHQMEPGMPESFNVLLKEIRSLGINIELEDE
T2 sequence (P0A8T7 whole entry, chain 3 of 4): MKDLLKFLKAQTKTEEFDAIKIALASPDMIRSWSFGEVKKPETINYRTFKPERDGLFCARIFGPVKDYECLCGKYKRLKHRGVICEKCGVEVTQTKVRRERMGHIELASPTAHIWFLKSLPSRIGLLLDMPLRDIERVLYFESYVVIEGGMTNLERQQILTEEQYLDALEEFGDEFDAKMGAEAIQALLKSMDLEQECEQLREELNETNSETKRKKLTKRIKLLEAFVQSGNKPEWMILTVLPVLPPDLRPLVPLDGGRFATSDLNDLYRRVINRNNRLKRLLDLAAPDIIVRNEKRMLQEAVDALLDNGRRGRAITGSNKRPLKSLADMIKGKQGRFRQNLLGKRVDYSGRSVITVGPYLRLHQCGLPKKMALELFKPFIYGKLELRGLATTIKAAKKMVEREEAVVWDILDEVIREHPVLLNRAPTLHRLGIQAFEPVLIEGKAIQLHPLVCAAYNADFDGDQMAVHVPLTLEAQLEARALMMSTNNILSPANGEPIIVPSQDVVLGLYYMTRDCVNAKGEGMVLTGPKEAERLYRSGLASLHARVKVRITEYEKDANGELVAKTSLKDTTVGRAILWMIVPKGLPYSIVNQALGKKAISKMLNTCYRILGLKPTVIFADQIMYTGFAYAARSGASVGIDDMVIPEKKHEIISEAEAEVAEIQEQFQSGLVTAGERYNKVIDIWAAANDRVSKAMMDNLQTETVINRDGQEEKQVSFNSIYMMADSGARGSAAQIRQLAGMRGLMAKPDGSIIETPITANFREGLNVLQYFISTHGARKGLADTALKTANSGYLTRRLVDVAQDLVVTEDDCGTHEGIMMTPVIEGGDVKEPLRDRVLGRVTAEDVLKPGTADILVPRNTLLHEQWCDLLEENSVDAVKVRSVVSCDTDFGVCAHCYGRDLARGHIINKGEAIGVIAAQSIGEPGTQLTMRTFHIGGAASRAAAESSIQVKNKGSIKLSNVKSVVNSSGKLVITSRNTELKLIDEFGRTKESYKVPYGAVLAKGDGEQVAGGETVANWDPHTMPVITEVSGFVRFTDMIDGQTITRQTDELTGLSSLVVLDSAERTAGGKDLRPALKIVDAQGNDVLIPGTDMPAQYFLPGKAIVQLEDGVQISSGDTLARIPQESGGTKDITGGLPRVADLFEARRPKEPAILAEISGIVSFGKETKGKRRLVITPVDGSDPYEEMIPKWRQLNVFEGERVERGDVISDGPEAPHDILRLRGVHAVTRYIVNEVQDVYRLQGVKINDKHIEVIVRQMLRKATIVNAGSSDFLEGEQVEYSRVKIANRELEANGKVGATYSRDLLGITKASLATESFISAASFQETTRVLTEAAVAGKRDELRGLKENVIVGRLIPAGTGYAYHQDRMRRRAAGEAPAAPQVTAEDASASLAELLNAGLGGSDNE
T2 sequence (P0A800 whole entry, chain 4 of 4): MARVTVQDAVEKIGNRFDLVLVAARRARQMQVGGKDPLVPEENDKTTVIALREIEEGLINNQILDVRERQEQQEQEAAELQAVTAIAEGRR

Binder | Kd [1] | also measured
UvrD carboxy-terminal region (UvrD-CTD, residues 645-720) (domain or fragment, E. coli, UniProt P03018 645-720, looked up, UvrD helicase (Helicase II), E. coli, residues 645-720; The His6 tag is called uncleavable; Used [U-15N] labelled in the NMR experiments; source: E. coli BL21(λDE3) pLysS, purified (Ni-NTA, SEC); not shown: His6, N-terminal, kept) RLRATVSRPVSHQRMGTPMVENDSGYKLGQRVRHAKFGEGTIVNMEGSGEHSRLQVAFQGQGIKWLVAAYARLESV | 77 ± 0.3 nM | 
UvrD helicase, full-length (1-720) (enzyme, E. coli, UniProt P03018 1-720, looked up, UvrD helicase (Helicase II), E. coli, full-length, residues 1-720; The His6 tag is called uncleavable; Used [U-2H,15N] labelled in the NMR experiments; also called UvrD-FL; UvrD full-length; source: E. coli BL21(λDE3) pLysS, purified (Ni-NTA, SEC); not shown: His6, N-terminal, kept) MDVSYLLDSLNDKQREAVAAPRSNLLVLAGAGSGKTRVLVHRIAWLMSVENCSPYSIMAVTFTNKAAAEMRHRIGQLMGTSQGGMWVGTFHGLAHRLLRAHHMDANLPQDFQILDSEDQLRLLKRLIKAMNLDEKQWPPRQAMWYINSQKDEGLRPHHIQSYGNPVEQTWQKVYQAYQEACDRAGLVDFAELLLRAHELWLNKPHILQHYRERFTNILVDEFQDTNNIQYAWIRLLAGDTGKVMIVGDDDQSIYGWRGAQVENIQRFLNDFPGAETIRLEQNYRSTSNILSAANALIENNNGRLGKKLWTDGADGEPISLYCAFNELDEARFVVNRIKTWQDNGGALAECAILYRSNAQSRVLEEALLQASMPYRIYGGMRFFERQEIKDALSYLRLIANRNDDAAFERVVNTPTRGIGDRTLDVVRQTSRDRQLTLWQACRELLQEKALAGRAASALQRFMELIDALAQETADMPLHVQTDRVIKDSGLRTMYEQEKGEKGQTRIENLEELVTATRQFSYNEEDEDLMPLQAFLSHAALEAGEGQADTWQDAVQLMTLHSAKGLEFPQVFIVGMEEGMFPSQMSLDEGGRLEEERRLAYVGVTRAMQKLTLTYAETRRLYGKEVYHRPSRFIGELPEECVEEVRLRATVSRPVSHQRMGTPMVENDSGYKLGQRVRHAKFGEGTIVNMEGSGEHSRLQVAFQGQGIKWLVAAYARLESV | 1000 ± 130 nM | 
UvrD-ΔCTD (1-664) (domain or fragment, E. coli, UniProt P03018 1-664, looked up, UvrD helicase (Helicase II), E. coli, residues 1-664; made by inserting a stop codon; Probably the His6 full-length construct; also called truncated UvrD lacking the CTD; source: E. coli BL21(λDE3) pLysS, purified (Ni-NTA, SEC)) MDVSYLLDSLNDKQREAVAAPRSNLLVLAGAGSGKTRVLVHRIAWLMSVENCSPYSIMAVTFTNKAAAEMRHRIGQLMGTSQGGMWVGTFHGLAHRLLRAHHMDANLPQDFQILDSEDQLRLLKRLIKAMNLDEKQWPPRQAMWYINSQKDEGLRPHHIQSYGNPVEQTWQKVYQAYQEACDRAGLVDFAELLLRAHELWLNKPHILQHYRERFTNILVDEFQDTNNIQYAWIRLLAGDTGKVMIVGDDDQSIYGWRGAQVENIQRFLNDFPGAETIRLEQNYRSTSNILSAANALIENNNGRLGKKLWTDGADGEPISLYCAFNELDEARFVVNRIKTWQDNGGALAECAILYRSNAQSRVLEEALLQASMPYRIYGGMRFFERQEIKDALSYLRLIANRNDDAAFERVVNTPTRGIGDRTLDVVRQTSRDRQLTLWQACRELLQEKALAGRAASALQRFMELIDALAQETADMPLHVQTDRVIKDSGLRTMYEQEKGEKGQTRIENLEELVTATRQFSYNEEDEDLMPLQAFLSHAALEAGEGQADTWQDAVQLMTLHSAKGLEFPQVFIVGMEEGMFPSQMSLDEGGRLEEERRLAYVGVTRAMQKLTLTYAETRRLYGKEVYHRPSRFIGELPEECVEEVRLRATVSRPVSHQRMGTPMV | 1900 ± 150 nM | 
Mfd RNAP Interaction Domain (Mfd-RID, residues 472-547; Domain 4) (domain or fragment, E. coli, UniProt P30958 472-547, looked up, Mfd (Transcription-Repair Coupling Factor, TRCF), E. coli, residues 472-547, comprising Domain 4; Used [U-15N] labelled in the NMR experiments; source: E. coli BL21 Star (λDE3), purified (Ni-NTA, SenP1 cleavage, second Ni-NTA, SEC); not shown: His6, N-terminal, cleaved; Sumo, N-terminal, cleaved) RNLAELHIGQPVVHLEHGVGRYAGMTTLEAGGITGEYLMLTYANDAKLYVPVSSLHLISRYAGGAEENAPLHKLGG | 250 ± 52 nM | 
Mfd full-length (1-1148) (enzyme, E. coli, UniProt P30958 1-1148, looked up, Mfd (Transcription-Repair Coupling Factor, TRCF), E. coli, full-length, residues 1-1148; Construct bought from Genscript; Used [U-2H,15N] labelled in the NMR experiments; also called Transcription-Repair Coupling Factor; TRCF; source: E. coli BL21 Star (λDE3), purified (Ni-NTA, SEC)) MPEQYRYTLPVKAGEQRLLGELTGAACATLVAEIAERHAGPVVLIAPDMQNALRLHDEISQFTDQMVMNLADWETLPYDSFSPHQDIISSRLSTLYQLPTMQRGVLIVPVNTLMQRVCPHSFLHGHALVMKKGQRLSRDALRTQLDSAGYRHVDQVMEHGEYATRGALLDLFPMGSELPYRLDFFDDEIDSLRVFDVDSQRTLEEVEAINLLPAHEFPTDKAAIELFRSQWRDTFEVKRDPEHIYQQVSKGTLPAGIEYWQPLFFSEPLPPLFSYFPANTLLVNTGDLETSAERFQADTLARFENRGVDPMRPLLPPQSLWLRVDELFSELKNWPRVQLKTEHLPTKAANANLGFQKLPDLAVQAQQKAPLDALRKFLETFDGPVVFSVESEGRREALGELLARIKIAPQRIMRLDEASDRGRYLMIGAAEHGFVDTVRNLALICESDLLGERVARRRQDSRRTINPDTLIRNLAELHIGQPVVHLEHGVGRYAGMTTLEAGGITGEYLMLTYANDAKLYVPVSSLHLISRYAGGAEENAPLHKLGGDAWSRARQKAAEKVRDVAAELLDIYAQRAAKEGFAFKHDREQYQLFCDSFPFETTPDQAQAINAVLSDMCQPLAMDRLVCGDVGFGKTEVAMRAAFLAVDNHKQVAVLVPTTLLAQQHYDNFRDRFANWPVRIEMISRFRSAKEQTQILAEVAEGKIDILIGTHKLLQSDVKFKDLGLLIVDEEHRFGVRHKERIKAMRANVDILTLTATPIPRTLNMAMSGMRDLSIIATPPARRLAVKTFVREYDSMVVREAILREILRGGQVYYLYNDVENIQKAAERLAELVPEARIAIGHGQMRERELERVMNDFHHQRFNVLVCTTIIETGIDIPTANTIIIERADHFGLAQLHQLRGRVGRSHHQAYAWLLTPHPKAMTTDAQKRLEAIASLEDLGAGFALATHDLEIRGAGELLGEEQSGSMETIGFSLYMELLENAVDALKAGREPSLEDLTSQQTEVELRMPSLLPDDFIPDVNTRLSFYKRIASAKTENELEEIKVELIDRFGLLPDPARTLLDIARLRQQAQKLGIRKLEGNEKGGVIEFAEKNHVNPAWLIGLLQKQPQHYRLDGPTRLKFIQDLSERKTRIEWVRQFMRELEENAIA | 310 ± 14 nM | 
GCAGTGCTCGTTTTTTT (ssDNA, biotin (position not given)) [biotinylated 17mer ssDNA] |  | Kd (UvrD-CTD [2]; single strand): 3800 ± 470 nM
biotinylated 35mer dsDNA (dsDNA, biotin (position not given)) DNA 1: CGAGCACTGCACTCGAGTGCAGTGCTCGTTGTTAT DNA 2: CGAGCACTGCACTCGAGTGCAGTGCTCGTTGTTAT |  | Kd (UvrD-CTD [2]; [4]): 1900 ± 170 nM
GCAGTGCTCGTTTTTTT (ssDNA) [17mer ssDNA] |  | binding result (UvrD-CTD [3]; single strand): binds; binding result (Mfd-RID): no binding
35mer dsDNA (dsDNA) DNA 1: CGAGCACTGCACTCGAGTGCAGTGCTCGTTGTTAT DNA 2: CGAGCACTGCACTCGAGTGCAGTGCTCGTTGTTAT |  | binding result (UvrD-CTD [3]; [4]): binds
